Measurements published in US20170226208A1 (SUPPREMOL, published 2017).

Tests used:
[1] = biological target: FcεRI at the surface of basophils (human) (UniProt P12319); assay: cell-based or functional assay
[2] = biological target: T1, recombinant soluble human FcγRIIB (UniProt P31994 43-217); assay: SPR; wildtype Fc format
T1 chain: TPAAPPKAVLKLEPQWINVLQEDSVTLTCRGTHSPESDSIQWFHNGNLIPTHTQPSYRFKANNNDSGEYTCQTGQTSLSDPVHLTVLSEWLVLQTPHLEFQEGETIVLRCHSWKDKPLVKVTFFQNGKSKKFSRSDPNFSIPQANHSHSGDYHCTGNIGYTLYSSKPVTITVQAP

[3] = biological target: T1, recombinant soluble human FcγRIIB; assay: SPR; N297A format
[4] = biological target: T2, native FcγRIIB expressed on cells (Raji, Daudi, PBMC B cells) (human, UniProt P31994 43-310); assay: cell-based or functional assay
T2 sequence (looked up): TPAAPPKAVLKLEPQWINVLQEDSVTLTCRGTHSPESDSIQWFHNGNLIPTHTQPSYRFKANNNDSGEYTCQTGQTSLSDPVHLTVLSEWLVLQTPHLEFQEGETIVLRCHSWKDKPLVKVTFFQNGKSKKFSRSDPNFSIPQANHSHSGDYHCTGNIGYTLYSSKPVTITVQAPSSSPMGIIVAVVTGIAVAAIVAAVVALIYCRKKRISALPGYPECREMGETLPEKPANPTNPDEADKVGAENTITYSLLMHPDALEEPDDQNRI

[5] = biological target: T3, recombinant soluble human FcγRIIB (human, UniProt P31994 43-217); assay: antigen-specific ELISA, sFcγRIIB coated, hybridoma supernatant
T3 construct: also called sFcγRIIB; SM101
T3 sequence: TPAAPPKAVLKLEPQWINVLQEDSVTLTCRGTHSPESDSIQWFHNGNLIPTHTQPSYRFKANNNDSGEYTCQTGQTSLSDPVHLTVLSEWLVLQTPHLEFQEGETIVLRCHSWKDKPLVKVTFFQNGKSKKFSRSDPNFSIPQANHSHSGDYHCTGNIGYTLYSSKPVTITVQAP
Description: Fusion of the myeloma cell line with the rat immune spleen cells was performed according to standard procedures. […] MAbs from tissue culture supernatant bound to the proteins were detected with HRP conjugated mAbs against the rat IgG isotypes (TIB173 anti-IgG2a, TIB174 anti-IgG2b, TIB170 anti-IgG1 all from ATCC, R-2c anti-IgG2c homemade), thus avoiding mAbs of IgM class. […] A FACS based assay was used to screen the antibodies for specific binding of the native antigen). Additionally the antibodies were screened for non-blocking characteristics, i.e. these antibodies still allow binding of IgG or immune complexes to membrane-bound FcγRIIB.

Chain of FcεRI at the surface of basophils (human) (P12319 26-257): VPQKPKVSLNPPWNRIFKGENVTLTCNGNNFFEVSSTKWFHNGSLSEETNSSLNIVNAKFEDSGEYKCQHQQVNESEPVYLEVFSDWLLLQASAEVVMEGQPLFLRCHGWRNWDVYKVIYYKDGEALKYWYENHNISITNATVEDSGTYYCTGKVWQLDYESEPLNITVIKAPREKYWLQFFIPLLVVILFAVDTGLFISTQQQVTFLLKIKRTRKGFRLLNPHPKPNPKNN

B1: ch8A6_cε2-4-degly (bispecific antibody, part only; not given: CH1, CL and IgE Fc domains, not shown: a dimerising Fc or GST)
heavy, part: EVQLVESGGDLVQPGRSLRLSCAASGFTFSDYYMAWVRQAPKKGLEWVASISSDGSNTYYGDSVKGRFTISRDNTRSNLYLQMNSLRSEDTATYYCARPGDYWGQGVMVTVSS
light, part: NIVMTQSPTSMFISVGDRVTMNCKASQNVGTYVDWFQQKTGQSPTLLIFGASNRYTGVPDRFTGSGSGTDFTLSISNMQAEDLAVYYCLQYNYHPYTFGPGTTLELKR
Binder B1 has a basophil activation by pollen, CD63-positive basophils, after 2 h incubation with antibody (% positive cells) [1] of 84.4 to 88, a basophil activation by pollen, CD63-positive basophils, after 6 h incubation with 0.5 µg/ml antibody [1] of 76.6% and a basophil activation by pollen, CD63-positive basophils, after 6 h incubation with antibody [1] of 76 to 84%.

B2: ch8A6_wt (antibody)
chain 1: EVQLVESGGDLVQPGRSLRLSCAASGFTFSDYYMAWVRQAPKKGLEWVASISSDGSNTYYGDSVKGRFTISRDNTRSNLYLQMNSLRSEDTATYYCARPGDYWGQGVMVTVSS
chain 2: NIVMTQSPTSMFISVGDRVTMNCKASQNVGTYVDWFQQKTGQSPTLLIFGASNRYTGVPDRFTGSGSGTDFTLSISNMQAEDLAVYYCLQYNYHPYTFGPGTTLELKR
B2 was tested, and the koff [2] was 0.00049 s⁻¹.

B3: chGB3_N297A (antibody, V domains shown)
VH: VQLQQSGPELVKPGASVKISCKASGYTFTDYYIYWVKQWPGQGLEWIGWIFPGTGNTYYNENFKDKATLTIDRSSSTAYMLLGSLTSEDSAVYFCYGPFAYWGQ
VL: RIQLTQSPSSLSASLGERVSLTCRASQEISGYLSWLQQKPDGTIKRLIYATSALDSGVPKRFSGSGSGSNYSLTISSLESEDFADYYCLQYANYPYTFGGGTKL
In the case of B3, the koff [3] is reported as 0.01 s⁻¹ and the “FcγRIIB-ITIM phosphorylation, densitometry of Western blot, Daudi cells, against untreated cells” value [4] is reported as 2.8 fold.

B4: monoclonal antibody 8A6 (rat IgG2a) (antibody, V domains shown)
VH: EVQLVESGGDLVQPGRSLRLSCAASGFTFSDYYMAWVRQAPKKGLEWVASISSDGSNTYYGDSVKGRFTISRDNTRSNLYLQMNSLRSEDTATYYCARPGDYWGQGVMVTVSS
VL: NIVMTQSPTSMFISVGDRVTMNCKASQNVGTYVDWFQQKTGQSPTLLIFGASNRYTGVPDRFTGSGSGTDFTLSISNMQAEDLAVYYCLQYNYHPYTFGPGTTLELKR
notes: Rat IgG2a from hybridoma supernatant; also called mAb 8A6; rat antibody 8A6
B4: binds [5].
